Consider two molecules from patent US20160347802A1 (MAX PLANCK GESELLSCHAFT ZUR FOERDERUNG DER WISSENSCHAFTEN E …, published 2016).

Series [1] deals with T1, zebrafish DraxinB, AVEXIS protein (zebrafish).
T1 chain: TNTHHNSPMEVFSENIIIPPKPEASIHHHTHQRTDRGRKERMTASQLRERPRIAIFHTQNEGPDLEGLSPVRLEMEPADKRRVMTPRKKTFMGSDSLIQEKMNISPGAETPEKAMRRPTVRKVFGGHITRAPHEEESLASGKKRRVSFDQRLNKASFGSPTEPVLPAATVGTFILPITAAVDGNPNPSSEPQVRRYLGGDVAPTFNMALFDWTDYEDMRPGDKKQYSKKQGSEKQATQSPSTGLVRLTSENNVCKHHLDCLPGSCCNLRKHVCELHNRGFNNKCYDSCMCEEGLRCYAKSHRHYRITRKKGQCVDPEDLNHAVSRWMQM
In words: AVEXIS, pentameric prey zebrafish DraxinA on bait zDraxinB.

Series [2] deals with the molecule itself. Kind of series: AVEXIS, pentameric prey zebrafish DraxinA on bait zDraxinA.
For series [3], the target named is T1, zebrafish DraxinB, AVEXIS protein. In words: AVEXIS, prey on bait zDraxinB, upper value; white = No binding.
Series [4] deals with the molecule itself. Kind of series: AVEXIS, prey on bait zDraxinA, lower value; white = No binding.
Series [5] deals with the molecule itself. Kind of series: AVEXIS, prey on bait zDraxinA, upper value; white = No binding.
Series [6] addresses T2, human DRAXIN, AVEXIS prey or bait protein (human, UniProt Q8NBI3 26-349).
T2 construct: It was tested in both bait and prey orientations
T2 sequence: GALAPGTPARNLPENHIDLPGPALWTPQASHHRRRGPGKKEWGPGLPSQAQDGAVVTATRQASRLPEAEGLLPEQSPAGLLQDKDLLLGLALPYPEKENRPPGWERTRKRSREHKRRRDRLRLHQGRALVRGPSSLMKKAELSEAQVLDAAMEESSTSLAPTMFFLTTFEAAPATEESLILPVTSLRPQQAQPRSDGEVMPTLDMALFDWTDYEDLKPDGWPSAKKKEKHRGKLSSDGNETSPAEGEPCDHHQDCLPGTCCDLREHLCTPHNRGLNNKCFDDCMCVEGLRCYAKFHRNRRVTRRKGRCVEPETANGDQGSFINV
Kind of series: AVEXIS, pentameric prey human DRAXIN on bait zDraxinA.

The target in series [7] is T1, zebrafish DraxinB, AVEXIS protein. Kind of series: AVEXIS, prey on bait zDraxinB, lower value; white = No binding.
Series [8] deals with the molecule itself. Kind of series: AVEXIS, prey on bait NTNG2; white = No binding. The text has this: (§1) The Matn4-bait served as an internal prey-protein control and was used for normalization of the A486 nm values; conditioned medium (CM) serves as negative control; n=3.
Series [9] deals with the molecule itself. In words: AVEXIS, prey NTNG2 on bait NTNG2.
Description: as §1

Series [10] has as its target T3, biotinylated recombinant human UNC5B (human, UniProt Q8IZJ1 27-377).
T3 construct: Made in HEK293-6E and immobilised on an SA chip
In words: AVEXIS, prey on bait UNC5B; white = No binding.
Description: as §1

Series [11] concerns the target T4, human Netrin-4, AVEXIS protein (human, UniProt Q9HB63 19-628).
T4 construct: not shown: AVEXIS tag (bait or prey)
T4 sequence (looked up): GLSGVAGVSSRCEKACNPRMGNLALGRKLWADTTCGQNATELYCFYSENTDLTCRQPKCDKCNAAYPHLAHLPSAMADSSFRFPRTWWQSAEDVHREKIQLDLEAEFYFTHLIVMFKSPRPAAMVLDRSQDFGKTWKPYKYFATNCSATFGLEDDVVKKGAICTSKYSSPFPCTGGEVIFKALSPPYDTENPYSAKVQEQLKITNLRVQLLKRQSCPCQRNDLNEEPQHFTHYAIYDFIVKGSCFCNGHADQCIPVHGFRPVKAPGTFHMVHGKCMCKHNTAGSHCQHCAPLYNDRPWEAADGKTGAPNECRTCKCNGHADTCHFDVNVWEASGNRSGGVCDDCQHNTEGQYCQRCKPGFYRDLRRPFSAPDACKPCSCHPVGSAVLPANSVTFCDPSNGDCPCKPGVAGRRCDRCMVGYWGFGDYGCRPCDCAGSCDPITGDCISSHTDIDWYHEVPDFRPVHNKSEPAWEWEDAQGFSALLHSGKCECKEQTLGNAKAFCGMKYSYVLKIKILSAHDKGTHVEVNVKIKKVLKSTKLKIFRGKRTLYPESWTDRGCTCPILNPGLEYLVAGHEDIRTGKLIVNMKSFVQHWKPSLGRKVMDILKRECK
In words: AVEXIS, prey on bait NTN4; white = No binding.
Description: as §1

Series [12] deals with T4, human Netrin-4, AVEXIS protein. Kind of series: AVEXIS, prey NTN4 on bait NTNG2.
Description: as §1

Series [13] has as its target T5, human DRAXIN 21 amino acid Netrin binding fragment, AVEXIS prey or bait protein (human).
T5 construct: Tested in both bait and prey orientations; also called human 21 amino acid DRAXIN fragment; derived 21 amino acid peptide; not shown: AVEXIS tag (rat Cd4d3+4 and prey or bait module)
T5 peptide: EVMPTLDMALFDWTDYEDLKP
In words: AVEXIS, prey on bait DRAXIN 21aa; white = No binding.
Description: as §1

Series [14] addresses T6, human Netrin-3, AVEXIS protein (human, UniProt O00634 28-580).
T6 construct: not shown: AVEXIS tag (bait or prey)
In words: AVEXIS, prey on bait NTN3; white = No binding.
Description: as §1

Series [15] has as its target T7, human Netrin-G1, AVEXIS protein (human, UniProt Q9Y2I2 29-510).
T7 construct: not shown: AVEXIS tag (bait or prey)
T7 sequence (looked up): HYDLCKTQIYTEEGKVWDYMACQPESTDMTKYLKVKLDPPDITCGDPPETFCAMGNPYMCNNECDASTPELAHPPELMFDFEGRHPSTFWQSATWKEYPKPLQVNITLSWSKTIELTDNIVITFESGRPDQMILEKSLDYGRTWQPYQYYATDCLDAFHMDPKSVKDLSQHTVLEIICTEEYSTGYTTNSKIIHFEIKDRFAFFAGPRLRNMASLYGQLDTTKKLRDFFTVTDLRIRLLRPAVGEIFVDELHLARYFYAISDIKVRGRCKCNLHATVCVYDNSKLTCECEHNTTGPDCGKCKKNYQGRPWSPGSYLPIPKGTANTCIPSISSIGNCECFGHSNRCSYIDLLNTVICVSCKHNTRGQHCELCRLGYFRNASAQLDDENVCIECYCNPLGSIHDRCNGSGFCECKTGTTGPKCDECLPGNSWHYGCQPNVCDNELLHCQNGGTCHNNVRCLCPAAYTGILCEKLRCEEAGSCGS
In words: AVEXIS, prey on bait NTNG1; white = No binding.
Description: as §1

For series [16], the target named is T8, human Netrin1, recombinant AVEXIS protein (biotinylated when immobilised) (human, UniProt O95631 25-604).
T8 construct: also called NTN1
In words: AVEXIS, prey NTN1 on bait NTNG2.
Description: as §1

Series [17] addresses T8, human Netrin1, recombinant AVEXIS …. In words: AVEXIS, prey on bait NTN1; white = No binding.
Description: as §1

The target in series [18] is T2, human DRAXIN, AVEXIS prey or bait …. Kind of series: AVEXIS, prey on bait DRAXIN; white = No binding.
Description: as §1

For series [19], the target named is T9, Matn4 ECD, mono-biotinylated bait protein (positive control).
T9 construct: extracellular domain; also called Matn4-bait
In words: AVEXIS, prey on bait Matn4 (+), positive control for the prey; dark = Binding.
Description: as §1

Series [20] concerns the target T6, human Netrin-3, AVEXIS protein. Kind of series: AVEXIS, prey NTN3 on bait NTNG2.
Description: as §1

T6 sequence (O00634 28-580): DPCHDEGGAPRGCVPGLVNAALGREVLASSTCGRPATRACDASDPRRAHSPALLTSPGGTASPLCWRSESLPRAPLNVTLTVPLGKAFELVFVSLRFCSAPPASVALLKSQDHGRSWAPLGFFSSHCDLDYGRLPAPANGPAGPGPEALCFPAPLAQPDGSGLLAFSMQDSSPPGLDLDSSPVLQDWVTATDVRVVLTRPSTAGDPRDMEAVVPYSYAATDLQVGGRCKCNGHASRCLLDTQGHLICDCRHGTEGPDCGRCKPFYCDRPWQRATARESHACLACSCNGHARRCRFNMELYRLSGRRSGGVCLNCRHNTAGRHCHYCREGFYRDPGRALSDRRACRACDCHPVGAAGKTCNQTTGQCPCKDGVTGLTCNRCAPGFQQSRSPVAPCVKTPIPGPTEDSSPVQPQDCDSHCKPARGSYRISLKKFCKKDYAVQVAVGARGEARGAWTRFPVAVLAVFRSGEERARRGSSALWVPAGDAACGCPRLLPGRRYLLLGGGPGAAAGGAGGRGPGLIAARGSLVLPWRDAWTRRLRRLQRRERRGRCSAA

B1: zebrafish DraxinA, AVEXIS prey or bait protein (ligand)
chain: SEISSDNFKQSLTPSTTTSKEHPETGLTGGRQQKRHWSGKERDSAGLFSQRHMDRLEDDGTSMEGLSPVRLEMGPGDTMKAEVHGEVRASAQMRQGSHPAEGELNRKGRRHSHRLLAEHRKHGGKKDKGRGKGDLSDPEPELDSLLKDLNAFEDGLNTSPPNYNSVPLNEVPSPLSPILVTTAIKGHPPTLPPASTKPQKSSQGRTQGEVMPTLDMTLFDWTDYEDMKPADSWPSNKRKDKRRSKNKSNGNTTTEAGIVEPCDHHLDCLSGSCCDLREFECKPHNRGLNNKCFDDCMCEEGLRCYAKFHRKRRVTRRRGRCVDPESVNSNQGAFITV
notes: Prey and bait forms of the same protein are kept as one molecule; Preys are pentameric except in the monomeric-prey experiments; also called DraxinA prey protein
Consider B1, for which the binding result in [1], in [2] and in series [6] was “no binding” each time. The A486nm came to 0.057 in series [3], 0.06 in series [4], 0.062 in series [5] and 0.059 in series [7].

B2: human Netrin-G2, AVEXIS protein (ligand, UniProt Q96CW9 18-507, looked up)
chain: DYDICKSWVTTDEGPTWEFYACQPKVMRLKDYVKVKVEPSGITCGDPPERFCSHENPYLCSNECDASNPDLAHPPRLMFDKEEEGLATYWQSITWSRYPSPLEANITLSWNKTVELTDDVVMTFEYGRPTVMVLEKSLDNGRTWQPYQFYAEDCMEAFGMSARRARDMSSSSAHRVLCTEEYSRWAGSKKEKHVRFEVRDRFAIFAGPDLRNMDNLYTRLESAKGLKEFFTLTDLRMRLLRPALGGTYVQRENLYKYFYAISNIEVIGRCKCNLHANLCSMREGSLQCECEHNTTGPDCGKCKKNFRTRSWRAGSYLPLPHGSPNACATAGSFGNCECYGHSNRCSYIDFLNVVTCVSCKHNTRGQHCQHCRLGYYRNGSAELDDENVCIECNCNQIGSVHDRCNETGFCECREGAAGPKCDDCLPTHYWRQGCYPNVCDDDQLLCQNGGTCLQNQRCACPRGYTGVRCEQPRCDPADDDGGLDCDRAPG
notes: not shown: AVEXIS tag (bait or prey)
On to B2, for which the A486nm turned out to be 0.062 in series [8]; 0.061 in series [10]; 0.063 in series [11]; 0.063 in series [13]; 0.062 in series [14]; 0.061 in series [15]. Moreover, the A486nm amounted to 0.06 in series [17], 0.06 in series [18] and 0.201 in series [19]. Further, the binding result in series [9], in series [12], in [16] and in series [20] was “no binding” throughout.
